This assay concerns the target synthetic peptide representing residues 620-635 of the BDBV GP2 stalk epitope (Bundibugyo virus). Nature of the assay: crystal structure. The conditions noted are these: both partners purified.

B1: BDBV223 Fab (Fab, V domains shown)
VH: QVQLQQWGAGLLKPSETLSLTCAVYGGSFTTTYWNWIRQPPGKGLEWIGEVNYSGNANYNPSLKGRVAISVDTSKNQFSLRLNSVTAADTAIYYCTSRIRSHIAYSWKGDVWGKGTTVTVSS
VL: EIVMTQSPGTLSLSPGERATLSCRASQSVPRNYIGWFQQKPGQAPRLLIYGASSRAAGFPDRFSGSGSGTDFTLTITRLEPEDFAMYYCHQYDRLPYTFGQGTKLEIK
B1: the binding result was “binds”.

The values above are taken from article PMC6470140 (Nature Communications, 2019).
